From article PMC11500415, “Chemical inhibition of stomatal differentiation by perturbation of the master-regulatory bHLH heterodimer via an ACT-Like domain” (Nature Communications, 2024)

Experiments:
Settings in all cases: both partners purified
recombinant SCRM (1-494) [1] = molecular target: T1, recombinant SCRM (1-494) (A. thaliana, UniProt Q9LSE2 1-494); assay: BLI; Octet Red96, anti-GST probes loaded with 500 nM GST tagged protein, 30 °C, 1× PBS, 2% DMSO, 0.02% Tween20; MUTE pre-incubated with Stomidazolone
T1 construct: Used in ITC and BLI; In BLI one partner was loaded GST-tagged on anti-GST probes; also called SCREAM; ICE1; source: E. coli BL21, purified (glutathione resin, thrombin, Superdex-200); not shown: GST, N-terminal, cleaved
T1 sequence (looked up): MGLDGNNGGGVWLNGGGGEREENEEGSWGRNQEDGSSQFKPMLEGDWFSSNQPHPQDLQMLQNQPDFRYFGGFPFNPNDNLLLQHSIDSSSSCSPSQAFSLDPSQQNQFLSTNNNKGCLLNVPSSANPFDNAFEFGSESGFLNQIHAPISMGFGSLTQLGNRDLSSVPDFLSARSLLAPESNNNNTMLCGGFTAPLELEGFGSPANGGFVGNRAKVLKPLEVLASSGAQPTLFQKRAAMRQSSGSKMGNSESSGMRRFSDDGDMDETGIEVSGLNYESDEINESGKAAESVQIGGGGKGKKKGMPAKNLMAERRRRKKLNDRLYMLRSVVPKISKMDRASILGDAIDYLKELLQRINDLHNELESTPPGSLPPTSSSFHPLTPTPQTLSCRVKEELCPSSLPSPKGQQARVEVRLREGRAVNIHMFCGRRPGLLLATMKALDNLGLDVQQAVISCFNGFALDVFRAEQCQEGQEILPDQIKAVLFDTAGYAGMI

recombinant SCRM (1-494) [2] = molecular target: T1, recombinant SCRM (1-494); assay: BLI; Octet Red96, anti-GST probes loaded with 500 nM GST tagged protein, 30 °C, 1× PBS, 2% DMSO, 0.02% Tween20; 1:1 model, steady-state analysis; without Stomidazolone
recombinant SCRM (1-494) [3] = molecular target: T1, recombinant SCRM (1-494); assay: ITC; Malvern PEAQ-ITC, 30 °C, PBS pH 7.4, 2% DMSO, 1 mM DTT; without Stomidazolone
recombinant SCRM (1-494) [4] = molecular target: T1, recombinant SCRM (1-494); assay: ITC; Malvern PEAQ-ITC, 30 °C, PBS pH 7.4, 2% DMSO, 1 mM DTT; MUTE pre-incubated with Stomidazolone

B1: recombinant MUTE (1-202), as used in BLI (natural protein, A. thaliana, UniProt Q9M8K6 1-202, looked up)
chain: MSHIAVERNRRRQMNEHLKSLRSLTPCFYIKRGDQASIIGGVIEFIKELQQLVQVLESKKRRKTLNRPSFPYDHQTIEPSSLGAATTRVPFSRIENVMTTSTFKEVGACCNSPHANVEAKISGSNVVLRVVSRRIVGQLVKIISVLEKLSFQVLHLNISSMEETVLYFFVVKIGLECHLSLEELTLEVQKSFVSDEVIVSTN
notes: also called full-length MUTE; source: E. coli BL21, purified (glutathione resin)
**Q.** Which results are given for B1?
**A.** Kd (recombinant SCRM (1-494) [1]): 0.857 ± 0.0151 µM; Kd (recombinant SCRM (1-494) [2]): 0.0075 ± 0.0012 µM

B2: recombinant MUTE (1-202), as used in ITC (natural protein, A. thaliana, UniProt Q9M8K6 1-202, looked up)
chain: B1 chain
notes: also called full-length MUTE; source: E. coli BL21, purified (glutathione resin, thrombin, Superdex-200); not shown: GST, N-terminal, cleaved
**Q.** What does the source list for B2?
**A.** Kd (recombinant SCRM (1-494) [3]): 0.0095 ± 0.0016 µM; Kd (recombinant SCRM (1-494) [4]): 0.9 ± 0.0345 µM
